Consider three molecules from PMC2330087, “Mechanistic Insights into a Novel Exporter-Importer System of Mycobacterium tuberculosis Unravel Its Role in Trafficking of Iron” (PLoS ONE, 2008).

For data set [1], the target named is IrtB-Rv2895c two-component system (rIrtB in LP-49 liposomes with rRv2895c) (Mycobacterium tuberculosis, UniProt P9WL31+P9WQJ7).
Data set [2] deals with the molecule itself. Nature of the data set: SEC + other: circular dichroism.

Chain of IrtB-Rv2895c two-component system (rIrtB in LP-49 liposomes with rRv2895c) (P9WL31 whole entry, one chain of several): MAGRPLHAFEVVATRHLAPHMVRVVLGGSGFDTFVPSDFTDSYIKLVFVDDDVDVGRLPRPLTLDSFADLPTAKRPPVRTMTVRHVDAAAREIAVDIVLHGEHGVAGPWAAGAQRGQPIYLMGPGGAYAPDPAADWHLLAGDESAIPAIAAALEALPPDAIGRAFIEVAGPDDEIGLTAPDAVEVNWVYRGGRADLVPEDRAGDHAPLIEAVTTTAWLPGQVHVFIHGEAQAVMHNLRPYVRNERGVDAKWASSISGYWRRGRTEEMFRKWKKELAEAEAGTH

On to `Nc1ncnc2c1ncn2[C@@H]1O[C@H](COP(=O)(O)OP(=O)(O)OP(=O)(O)O)[C@@H](O)[C@H]1O` [ATP], for which, in data set [1], the “inorganic phosphate release in proteoliposomes” value is recorded as “The increase in ATPase activity of (a) LP-49 liposomes after incubation with Fe-cMyco bound rRv2895c”.

B1: rIrtA (recombinant purified IrtA, Rv1348) (natural protein)
chain: MARGLQGVMLRSFGARDHTATVIETISIAPHFVRVRMVSPTLFQDAEAEPAAWLRFWFPDPNGSNTEFQRAYTISEADPAAGRFAVDVVLHDPAGPASSWARTVKPGATIAVMSLMGSSRFDVPEEQPAGYLLIGDSASIPGMNGIIETVPNDVPIEMYLEQHDDNDTLIPLAKHPRLRVRWVMRRDEKSLAEAIENRDWSDWYAWATPEAAALKCVRVRLRDEFGFPKSEIHAQAYWNAGRAMGTHRATEPAATEPEVGAAPQPESAVPAPARGSWRAQAASRLLAPLKLPLVLSGVLAALVTLAQLAPFVLLVELSRLLVSGAGAHRLFTVGFAAVGLLGTGALLAAALTLWLHVIDARFARALRLRLLSKLSRLPLGWFTSRGSGSIKKLVTDDTLALHYLVTHAVPDAVAAVVAPVGVLVYLFVVDWRVALVLFGPVLVYLTITSSLTIQSGPRIVQAQRWAEKMNGEAGSYLEGQPVIRVFGAASSSFRRRLDEYIGFLVAWQRPLAGKKTLMDLATRPATFLWLIAATGTLLVATHRMDPVNLLPFMFLGTTFGARLLGIAYGLGGLRTGLLAARHLQVTLDETELAVREHPREPLDGEAPATVVFDHVTFGYRPGVPVIQDVSLTLRPGTVTALVGPSGSGKSTLATLLARFHDVERGAIRVGGQDIRSLAADELYTRVGFVLQEAQLVHGTAAENIALAVPDAPAEQVQVAAREAQIHDRVLRLPDGYDTVLGANSGLSGGERQRLTIARAILGDTPVLILDEATAFADPESEYLVQQALNRLTRDRTVLVIAHRLHTITRADQIVVLDHGRIVERGTHEELLAAGGRYCRLWDTGQGSRVAVAAAQDGTR
notes: also called p23-IrtA
For the molecule B1, the binding result in data set [2] was “binds”.

B2: rIrtB (recombinant purified IrtB, Rv1349) (natural protein)
chain: MIRTWIALVPNDHRARLIGFALLAFCSVVARAVGTVLLVPLMAALFGEAPQRAWLWLGWLSAATVAGWVLDAVTARIGIELGFAVLNHTQHDVADRLPVVRLDWFTAENTATARQAIAATGPELVGLVVNLVTPLTSAILLPAVIALALLPISWQLGVAALAGVPLLLGALWASAAFARRADTAADKANTALTERIIEFARTQQALRAARRVEPARSLVGNALASQHTATMRLLGMQIPGQLLFSIASQLALIVLAGTTAALTITGTLTVPEAIALIVVMVRYLEPFTAVSELAPALESTRATLGRIGSVLTAPVMVAGSGTWRDGAVVPRIEFDDVAFGYDGGSGPVLDGVSFCLQPGTTTAIVGPSGCGKSTILALIAGLHQPTRGRVLIDGTDVATLDARAQQAVCSVVFQHPYLFHGTIRDNVFAADPGASDDQFAQAVRLARVDELIARLPDGANTIVGEAGSALSGGERQRVSIARALLKAAPVLLVDEATSALDAENEAAVVDALAADPRSRTRVIVAHRLASIRHADRVLFVDDGRVVEDGSISELLTAGGRFSQFWRQQHEAAEWQILAE
notes: also called p28-IrtB
With B2, the binding result in data set [2] was “binds”.
